In article PMC5477490 (Nature Communications, 2016):

How the values were obtained:
Test in all cases: BLI; […] (AHC) biosensor, […]; Octet Red; 25 °C; kinetics buffer 1 × PBS, pH 7.4; association 900 s, dissociation 900 s; […]
Conditions in all cases: both partners purified
[1] = biological target: HA of A/Vietnam/1203/2004(H5N1) (Influenza A virus …, UniProt A8UDR6, strain)
[2] = biological target: HA of A/Anhui/1/2005(H5N1) (Influenza A virus A/Anhui/1/2005(H5N1), strain)
[3] = biological target: HA of A/Canada/720/2005(H2N2) (Influenza A virus …, UniProt Q4ZH98, strain)
[4] = biological target: T1, HA of A/Brevig Mission/1/1918(H1N1) (Influenza A virus A/Brevig …, UniProt Q9WFX3, strain)
T1 construct: source: bought: Sino Biological Inc

HA of A/WSN/1933(H1N1) = HA of A/WSN/1933(H1N1) (Influenza A virus A/WSN/1933(H1N1), strain)
[5] = biological target: HA of A/Brisbane/59/2007(H1N1) (Influenza A virus …, strain)
[6] = biological target: HA of A/California/07/2009(H1N1) (Influenza A virus …, UniProt C3W5X2, strain)
[7] = biological target: HA of A/Hong Kong/483/1997(H5N1) (Influenza A virus A/Hong …, strain)

B1: human mAb 3E1 (antibody, V domains shown)
VH: QVQLQESGPGLVKPSETLSLTCSVSGASISSYYWIWIRQPAGKGLEWIGRFYTSGSPNYNPSLRSRVTMSVDTSKNQFSLKLTSVTAADTAVYYCAREEHITFGGVIVRYWGQGTLVTVSS
VL: DIQMTQSPATLSASVGDRVSITCRASQSISSWLAWYQQKPGKAPKLLIYKASSLESGVPSRFSGSGSGSEFTLTISSLQPDDFAIYYCQQYNSYPWTFGQGTKVEIK
notes: IgG1, kappa; also called 3E1 mAb
B1: binds [1]; binds [2]; no binding [3]. B1: binds [4]; binds (HA of A/WSN/1933(H1N1)); binds [5]. B1: binds [6]; binds [7].
